This note sets out measurements from article PMC3326311 (Nucleic Acids Research, 2011).

First the molecules themselves.
B1: HerA helicase (Sulfolobus solfataricus), untagged (enzyme, Sulfolobus solfataricus P2, UniProt Q97WG8 1-500, looked up)
chain: MIIGYVIGQATTQEALILAERPVRLGTYVVLEYDNVKALGLITNVTRGSPMLDDNMNDIEIVQRLKQFNNSIPVYTKAKVKMLCDMNNHFLMPDIPPFAGTPAREAEDEELKSIYSQDGQIRIGSLIGKNVEVKLNINSFARHLAILAATGSGKSNTVAVLSQRISELGGSVLIFDYHGEYYDSDIKNLNRIEPKLNPLYMTPREFSTLLEIRENAIIQYRILRRAFIKVTNGIREKLKEGQIPFSTLNSQFYELMKDELETQGNSDKKSSAKDEVLNKFEEFMDRYSNVIDLTSSDIIEKVKRGKVNVVSLTQLDEDSMDAVVSHYLRRILDSRKDFKRSKNSGLKFPIIAVIEEAHVFLSKNENTLTKYWASRIAREGRKFGVGLTIVSQRPKGLDENILSQMTNKIILKIIEPTDKKYILESSDNLSEDLAEQLSSLDVGEAIIIGKIVKLPAVVKIDMFEGKLLGSDPDMIGEWKKVEESEKIAKGFADFGTEIGD

Data set [1] concerns the molecule itself. As to the kind of experiment: SEC.
Data set [2] concerns the molecule itself. The data set is described as follows: crystal structure.
Data set [3] concerns the target B1. The data set is described as follows: SEC.

As to B1, the “stoichiometry N” value in data set [1] stood at 6.

B2: NurA nuclease (Sulfolobus solfataricus), untagged (enzyme, Sulfolobus solfataricus P2)
chain: MIRKIYDKLVESHNEIKNQIYNIANYLKQEIQDKVNEYWNEYVINHEQSETCKFVAIDGGSFGRPMRIGIVYAVGAESVIGDNKGVKTLSEDGQIGIFKPGNDAQERISLLMEALELSLALRDGSKGDYILMDGSLSKKIGNKVDIQQFSDEELKLIRNVDLNGIISIKDERKMRDLLMLLNQFLVSKIIEEYDGNVLWISKVSRGRDLFGTDYPDITVLELFTEKRGFSKLIIKNIDIEKISEIPEIEVLRKMEYTTFYTRLDNGKRVIRVDIVGRVDEKIVKEIMDRLSGVSIKGYPFPLLKAHMDVRFSAMDREKIIKLVGSKLHKDIEWWPSQFY
In the case of B2, the “stoichiometry N” value in data set [2] worked out at 2.

B3: NurA F300E (enzyme, Sulfolobus solfataricus P2)
chain: MIRKIYDKLVESHNEIKNQIYNIANYLKQEIQDKVNEYWNEYVINHEQSETCKFVAIDGGSFGRPMRIGIVYAVGAESVIGDNKGVKTLSEDGQIGIFKPGNDAQERISLLMEALELSLALRDGSKGDYILMDGSLSKKIGNKVDIQQFSDEELKLIRNVDLNGIISIKDERKMRDLLMLLNQFLVSKIIEEYDGNVLWISKVSRGRDLFGTDYPDITVLELFTEKRGFSKLIIKNIDIEKISEIPEIEVLRKMEYTTFYTRLDNGKRVIRVDIVGRVDEKIVKEIMDRLSGVSIKGYPEPLLKAHMDVRFSAMDREKIIKLVGSKLHKDIEWWPSQFY
Take B3: the “stoichiometry N” value in data set [1] was 2.

B4: NurA K202A (enzyme, Sulfolobus solfataricus P2)
chain: MIRKIYDKLVESHNEIKNQIYNIANYLKQEIQDKVNEYWNEYVINHEQSETCKFVAIDGGSFGRPMRIGIVYAVGAESVIGDNKGVKTLSEDGQIGIFKPGNDAQERISLLMEALELSLALRDGSKGDYILMDGSLSKKIGNKVDIQQFSDEELKLIRNVDLNGIISIKDERKMRDLLMLLNQFLVSKIIEEYDGNVLWISAVSRGRDLFGTDYPDITVLELFTEKRGFSKLIIKNIDIEKISEIPEIEVLRKMEYTTFYTRLDNGKRVIRVDIVGRVDEKIVKEIMDRLSGVSIKGYPFPLLKAHMDVRFSAMDREKIIKLVGSKLHKDIEWWPSQFY
Take B4: the binding result in data set [3] is given as “binds”.

B5: NurA I295E/F300E double mutant (enzyme, Sulfolobus solfataricus P2)
chain: MIRKIYDKLVESHNEIKNQIYNIANYLKQEIQDKVNEYWNEYVINHEQSETCKFVAIDGGSFGRPMRIGIVYAVGAESVIGDNKGVKTLSEDGQIGIFKPGNDAQERISLLMEALELSLALRDGSKGDYILMDGSLSKKIGNKVDIQQFSDEELKLIRNVDLNGIISIKDERKMRDLLMLLNQFLVSKIIEEYDGNVLWISKVSRGRDLFGTDYPDITVLELFTEKRGFSKLIIKNIDIEKISEIPEIEVLRKMEYTTFYTRLDNGKRVIRVDIVGRVDEKIVKEIMDRLSGVSEKGYPEPLLKAHMDVRFSAMDREKIIKLVGSKLHKDIEWWPSQFY
Regarding B5, the “stoichiometry N” value in data set [1] was found to be 2.

B6: NurA I295E (enzyme, Sulfolobus solfataricus P2)
chain: MIRKIYDKLVESHNEIKNQIYNIANYLKQEIQDKVNEYWNEYVINHEQSETCKFVAIDGGSFGRPMRIGIVYAVGAESVIGDNKGVKTLSEDGQIGIFKPGNDAQERISLLMEALELSLALRDGSKGDYILMDGSLSKKIGNKVDIQQFSDEELKLIRNVDLNGIISIKDERKMRDLLMLLNQFLVSKIIEEYDGNVLWISKVSRGRDLFGTDYPDITVLELFTEKRGFSKLIIKNIDIEKISEIPEIEVLRKMEYTTFYTRLDNGKRVIRVDIVGRVDEKIVKEIMDRLSGVSEKGYPFPLLKAHMDVRFSAMDREKIIKLVGSKLHKDIEWWPSQFY
On to B6, for which the “stoichiometry N” value in data set [1] stood at 2.
